Legend:
[1] = system: Mouse colorectal carcinoma cell line CMT93; assay: In vivo antitumor effect, CMT93 subcutaneous transplant model; conditions: 0.4 mg/kg, tail vein, on Day 7, male B6J mice
Procedure: (§1) The antitumor effects of the antibody-drug conjugates were evaluated by using animal models in which cells of a human tumor cell line had been transplanted into immunodeficient mice, or cells of a mouse tumor cell line had been transplanted into immunocompetent mice. 4 to 6 Week-old SCID mice (CB17/Icr-Prkdc[scid]/CrlCrlj, Jackson Laboratory Japan, Inc.), NSG mice (NOD.Cg-Prkdcscid Il2rgtm1Wjl/SzJ, Jackson Laboratory Japan, Inc.), or B6J mice (C57BL/6J, Jackson Laboratory Japan, Inc.) were habituated for 3 days or more under SPF conditions before experimental use. The mice were fed with sterilized solid feed and given sterilized tap water. The major and minor diameters of the transplanted tumors were measured twice a week with an electronic digital caliper (Mitutoyo Corporation), and the estimated tumor volume was calculated using the following formula. Estimated tumor volume (mm^3) = 1/2 × major diameter (mm) × [minor diameter (mm)]^2 All antibody-drug conjugates were diluted with ABS and administered into the tail vein at doses shown in each Example. In addition, ABS (vehicle) or control hIgG-PBD prepared in Reference Example 4 was administered as the control group, in a similar manner. 5 to 6 Mice were used per group in the experiment. To analyze the LRRC15 expression in mouse tumor models, immunohistochemical staining of LRRC15 was performed. […]

[2] = system: HER2-positive breast carcinoma cell line SUM190PT; assay: In vivo antitumor effect, SUM190PT subcutaneous transplant model; conditions: 0.4 mg/kg, tail vein, on Day 32, female SCID mice
Procedure: as §1, with “experiment.” for “experiment. To analyze the LRRC15 expression in mouse tumor models, immunohistochemical staining of LRRC15 was performed.”

[3] = system: Fibrosarcoma cell line HT-1080; assay: In vivo antitumor effect, HT-1080 subcutaneous transplant model; conditions: 0.4 mg/kg, tail vein, on Day 7, female SCID mice
Procedure: as §1

B1: H02L01-PBD (conjugate)
heavy: EVQLVESGGGLVQPGGSLRLSCAASGFTFRDYYMAWVRQAPGKGLEWVSSIGFDESRTYYADSVKGRFTISRDDSKNTLYLQMNSLRAEDTAVYYCARHGVSYYSGDNWFAYWGQGTLVTVSSASTKGPSVFPLAPSSKSTSGGTAALGCLVKDYFPEPVTVSWNSGALTSGVHTFPAVLQSSGLYSLSSVVTVPSSSLGTQTYICNVNHKPSNTKVDKKVEPKSCDKTHTCPPCPAPEAAGGPSVFLFPPKPKDTLMISRTPEVTCVVVDVSHEDPEVKFNWYVDGVEVHNAKTKPREEQYNSTYRVVSVLTVLHQDWLNGKEYKCKVSNKALAAPIEKTISKAKGQPREPQVYTLPPSREEMTKNQVSLTCLVKGFYPSDIAVEWESNGQPENNYKTTPPVLDSDGSFFLYSKLTVDKSRWQQGNVFSCSVMHEALHNHYTQKSLSLSPGK
light: DIQMTQSPSSLSASVGDRVTITCKSSQGLLYSGDQKNYLAWYQQKPGKAPKLLIYWASTRQSGVPSRFSGSGSGTDFTLTISSLQPEDFATYYCQQYYDPPYTFGQGTKVEIKRTVAAPSVFIFPPSDEQLKSGTASVVCLLNNFYPREAKVQWKVDNALQSGNSQESVTEQDSKDSTYSLSSTLTLSKADYEKHKVYACEVTHQGLSSPVTKSFNRGEC
With B1 the “antitumor effect (estimated tumor volume)” value (shortened to “antitumor effect”) [1] was “antitumor activity higher than that of the vehicle and the control hIgG-PBD”.

B2: H02L01-V1-PBD (conjugate)
heavy: EVQLVESGGGLVQPGGSLRLSCAASGFTFRDYYMAWVRQAPGKGLEWVSSIGFDESRTYYADSVKGRFTISRDDSKNTLYLQMNSLRAEDTAVYYCARHGVSKYSGDNWFAYWGQGTLVTVSSASTKGPSVFPLAPSSKSTSGGTAALGCLVKDYFPEPVTVSWNSGALTSGVHTFPAVLQSSGLYSLSSVVTVPSSSLGTQTYICNVNHKPSNTKVDKKVEPKSCDKTHTCPPCPAPEAAGGPSVFLFPPKPKDTLMISRTPEVTCVVVDVSHEDPEVKFNWYVDGVEVHNAKTKPREEQYNSTYRVVSVLTVLHQDWLNGKEYKCKVSNKALAAPIEKTISKAKGQPREPQVYTLPPSREEMTKNQVSLTCLVKGFYPSDIAVEWESNGQPENNYKTTPPVLDSDGSFFLYSKLTVDKSRWQQGNVFSCSVMHEALHNHYTQKSLSLSPGK
light: DIQMTQSPSSLSASVGDRVTITCKSSQGLLYSGDQKNYLAWYQQKPGKAPKLLIYWASTRQSGVPSRFSGSGSGTDFTLTISSLQPEDFATYYCQQYYDPPYTFGQGTKVEIKRTVAAPSVFIFPPSDEQLKSGTASVVCLLNNFYPREAKVQWKVDNALQSGNSQESVTEQDSKDSTYSLSSTLTLSKADYEKHKVYACEVTHQGLSSPVTKSFNRGEC
B2 was tested, and the “antitumor effect” value [2] was “antitumor activity higher than that of the vehicle and control hIgG-PBD”, the “antitumor effect” value [1] was “antitumor activity higher than that of the vehicle and the control hIgG-PBD” and the “antitumor effect” value [3] was “antitumor activity higher than that of the vehicle and control hIgG-PBD”.
